Measurements taken from patent publication US20250052751A1, “COMPOSITIONS AND METHODS FOR DIAGNOSING AUTOIMMUNE AQUAPORINOPATHY” (The Regents of the University of California, priority 2023, published 2025).

Molecular target: MHC class II I-A^b molecules purified by affinity chromatography (mouse) (UniProt P14434)
Test: competitive peptide binding assay on purified I-Ab

MOG p35-55 (from UniProt Q61885 63-83)
IC50: 387 nM
